Results as given in patent publication US20070275428A1.

Legend:
Experiment in all cases: cell-based or functional assay
[1] = molecular target: non-phosphorylable Akt kinase motif … (alanine substitution) of sensor AS1A
[2] = molecular target: Akt kinase motif (AKM) peptide … of sensor AS1T
[3] = molecular target: IRS-1 phosphorylation domain (PTB peptide), 13 amino acid peptide including Y941 of insulin receptor substrate 1

| complemented FL activity of 293T/AS1A xenografts in nude mice 6 hours after 30 mg/kg perifosine, relative to carrier control treated mice [1] [% decrease] | complemented FL activity of untreated 293T/AS1A cells relative to untreated 293T/AS1T cells [1] [fold] | FL activity of AS1T in 293T cells treated with PDGF for 30 minutes, relative to carrier control [2] [% decrease] | complemented FL activity of 293T/AS1T xenografts in nude mice 6 hours after 30 mg/kg perifosine, relative to carrier control treated mice [2] [% increase] | complemented FL activity of AS1T in BT474 cells treated with the PI-3K inhibitor LY294002 for 24 hours, relative to carrier control [2] [fold] | maximum induction of complemented FL activity of AS1T in response to LY294002 [2] [fold] | bioluminescence signal induction, split firefly IRS-1 sensor with (EAAAR)2 linker in CHO-IR cells implanted in nude mice, after insulin (fold induction) [3] | bioluminescence signal induction, split firefly IRS-1 sensor with (EAAAR)2 linker in CHO-IR cells implanted in nude mice, no insulin (fold induction) [3] | Substance |
| --- | --- | --- | --- | --- | --- | --- | --- | --- |
| 20 | 10 | 60 | 60 | 1.3 | 4 |  |  | yeast phosphothreonine FHA2 binding domain (from UniProt P22216 601-664) |
|  |  |  |  |  |  | 5 | 1.3 | SH2 domain of PI3 Kinase (substrate recognition domain) (from UniProt P27986 330-433) |
